Source: patent CN113278066A
Where two headings read alike, the source gives them in different places.

Experiments:
[1] = target: 非洲猪瘟病毒(ASFV)灭活抗原 (African swine fever virus)
[2] = target: 非洲猪瘟病毒(ASFV)灭活抗原 (African swine fever virus); remark: listed apart in the source
[3] = target: 非洲猪瘟病毒(ASFV)灭活抗原 (African swine fever virus); remark: listed apart in the source

B1: 全猪源非洲猪瘟病毒单克隆抗体 κ-9B (antibody, V domains shown)
VH: EGKLVESGGGLVQPGGSLRLSCVGSGFDFINTYMNWVRQAPGKGLEWLATISTKGISTYYADSVKGRFTISKDNSQNTADLLMRILRIEDTVRYFCAMSDSGGRNCVAGDSSCPHYYGMNLWGPGVEVVVSS
VL: AIQLTQSPASLAASLGDTVSVTCRASQSISSYLAWYQQQPGKAPKLLIVAASTLQSGVPSRFKGSGSGTDFTLTISGLQAEDVATYYCFQRNSVPWTFGQGTKLELKA
OD值 [1]: 0.733 OD450nm
OD值 [2]: 1.91 OD450nm
OD值 [3]: 0.717 OD450nm
